Experimental findings from patent US7582299B2, “Cripto-specific antibodies” (Biogen Idec MA Inc., priority 2001, dated 2009) are described below.

One test deals with T-47D-CR cells. The test is described as follows: Proliferation of T-47D-CR cells with Activin, with or without anti-Cripto mab. It counts as cell-based, human. Particulars: low serum; FIG. 6. As for the experimental part: (§1) T47D cells, maintained in RPMI/10% FCS/10 μg/ml insulin, at passage #2 from the ATCC were transfected with an expression plasmid for the Ecotropic Receptor (EcoR; B. Elenbaas) and selected in media containing 100 μg/ml hygromycin. Colonies of T-47D-EcoR that permitted infection of pBABE-GFP murine leukemia virus (MLV) were grown out, infected with pBABE-hCr-PURO-MLV and selected in puromycin media. This oligoclonal line (T-47D-hCr) was analyzed by FACS for hCr (human Cripto) expression with specific anti-Cripto antibodies. Approximately 4000 cells/well of T-47D-EcoR or T-47D-hCr were plated in a 96 well plate in media containing 2% serum with/without 25 ng/ml Activin B (R&D) or […] plus 0.1-50 μg/ml A8G3.5. Media with factors was replaced daily for 7-8 days. The plate was harvested by adding 20 μl/well CellTiter AQueous One solution (Promega), incubating 2 hours 37° C., and reading at 490 nm.
(§2) We grew T-47D and T-47D-EcoR cells in low serum conditions, with or without Activin A or B and assayed for proliferating cells using an MTT colorimetric assay.
We then tested whether antibodies of the invention can inhibit the Cripto-Activin B interaction. We treated T-47D-CR cells with Activin B in the presence of various antibodies of the invention. We observed that the growth suppressive activity of Activin B was restored in the presence of 10 or 20 μg/ml mab A8G3.5 (FIG. 7).

In another test the test system is T-47D cells. Kind of test: Proliferation of T-47D cells with Activin A or B (MTT). It counts as cell-based, human. The note with it: low serum; compared to untreated cells; FIG. 6. As to the method: as §1, §2
In test [1] the target is T1, CR-Fc (Homo sapiens, UniProt P13385).
T1 sequence (P13385 31-150): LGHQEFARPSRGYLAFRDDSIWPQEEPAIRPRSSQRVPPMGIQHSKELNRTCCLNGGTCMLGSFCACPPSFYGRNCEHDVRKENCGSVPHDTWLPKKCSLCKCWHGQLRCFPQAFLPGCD
Kind of test: ELISA of CR-Fc on ligand-coated plates. It counts as binding. Particulars: for inhibition of CR-Fc binding to Activin B coated plate: CR-Fc pre-incubated with ligand in solution, FIG. 9; for binding of CR-Fc to ligand-coated wells: ELISA plates coated with purified ligand, FIG. 8. As to the method: In still other experiments, we coated 96 well plates by adding to each well 100 μl of 3-5 μg/ml Activin B or another ligand in 50 mM carbonate (pH 9.5). We incubated the plates for 1 hr. at room temperature and blocked overnight with TBS/1% BSA overnight at 4° C. We incubated the plate with CR-Fc or ALK4-Fc in blocking buffer at room temperature, washed in TBST and probed with anti-human-AP (Jackson). We washed the plate in TBST, once in 10× substrate buffer (200 mM Tris-HCl, 10 mM MgCl2, pH 9.8) and added CSPD and Sapphire (Applied Biosystems).
We discovered that Cripto binds directly to Activin B. We coated ELISA plates with purified Activin B, Activin A, TGFβ1, GDNF or BMP2 and incubated with CR-Fc. We then added anti-Fc antibody conjugated to alkaline phosphatase and monitored binding by adding an alkaline phosphatase substrate and developing.

Test [2] deals with T1, CR-Fc. Kind of test: Biacore, CR-Fc immobilized on chip. It counts as binding. Particulars: for binding to CR-Fc immobilized on a Biacore chip: FIG. 10. The text has this:
We also analyzed the Cripto-Activin B interaction using Biacore. […] We also observed that Activin A binding to CR-Fc was negligible.

Take “Activin B: purified ligand protein (R&D) that binds Cripto and inhibits tumor cell proliferation”: the “response of T-47D-CR cell proliferation to Activin” value with T-47D-CR cells is on record as “not responsive to Activin B”. In addition, the “inhibition of proliferation of T-47D cells” value in the test with T-47D cells is “approximately 40%”. In addition, in the test with CR-Fc [1], the “inhibition of CR-Fc binding to Activin B coated plate” value is on record as “only Activin B inhibits binding” and the “binding of CR-Fc to ligand-coated wells” value is “bound to wells containing Activin B”. Also, the “on rate of binding to Cripto” value with CR-Fc [2] (Biacore) is “fast on rate”. Besides, the “binding to CR-Fc immobilized on a Biacore chip” value with CR-Fc [2] is “directly binds CR-Fc immobilized on a Biacore chip with a high intensity”.

As to “Activin A: purified ligand protein tested on T-47D cells and for binding to CR-Fc”, the “response of T-47D-CR cell proliferation to Activin” value with T-47D-CR cells is reported as “inhibited by Activin A”. Also, the “inhibition of proliferation of T-47D cells” value with T-47D cells is given as “approximately 40%”. Further, in the test with CR-Fc [1], the “inhibition of CR-Fc binding to Activin B coated plate” value was “only Activin B inhibits binding” and the “binding of CR-Fc to ligand-coated wells” value was “not to Activin A”. Besides, the “binding to CR-Fc immobilized on a Biacore chip” value with CR-Fc [2] is “negligible”.
